Measurements taken from patent US20190099499A1 (Pfizer, published 2019).

How the values were obtained:
[1] = molecular target: T1, human Fc-gamma receptor IIb (CD32b) (human, UniProt P31994 43-217); assay: SPR (BIAcore), antibody captured on immobilized CD33 ECD, receptor injected; steady state fit
T1 construct: Soluble receptor injected over captured antibody; also called FcγIIb(CD32b)
T1 sequence (looked up): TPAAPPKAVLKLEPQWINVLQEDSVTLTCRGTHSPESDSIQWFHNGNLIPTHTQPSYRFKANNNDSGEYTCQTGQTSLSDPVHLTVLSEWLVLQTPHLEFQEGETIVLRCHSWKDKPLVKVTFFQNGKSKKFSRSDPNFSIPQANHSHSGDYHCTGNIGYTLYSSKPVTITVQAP
Experimental: (§1) Various concentrations of the Fcγ receptors FcγIIa (CD32a), FcγIIb(CD32b), FcγIIIa (CD16a) and FcγRI (CD64) were injected over the surface and binding was determined.

[2] = molecular target: T2, human Fc-gamma receptor IIIa (CD16a) (human, UniProt P08637 17-208); assay: as above
T2 construct: Soluble receptor injected over captured antibody; also called FcγIIIa (CD16); FcγIIIa (CD16a)
T2 sequence (P08637 17-208 limits assumed): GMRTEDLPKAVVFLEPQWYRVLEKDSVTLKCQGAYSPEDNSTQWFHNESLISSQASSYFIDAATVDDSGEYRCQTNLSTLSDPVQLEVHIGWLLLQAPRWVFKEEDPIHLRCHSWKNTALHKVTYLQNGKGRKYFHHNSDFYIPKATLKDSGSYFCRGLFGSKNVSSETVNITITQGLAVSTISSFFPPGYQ
Experimental: as §1

[3] = molecular target: T3, human Fc-gamma receptor IIa (CD32a) (human, UniProt P12318 34-217); assay: as above
T3 construct: Soluble receptor injected over captured antibody; also called FcγIIa (CD32a)
T3 sequence (looked up): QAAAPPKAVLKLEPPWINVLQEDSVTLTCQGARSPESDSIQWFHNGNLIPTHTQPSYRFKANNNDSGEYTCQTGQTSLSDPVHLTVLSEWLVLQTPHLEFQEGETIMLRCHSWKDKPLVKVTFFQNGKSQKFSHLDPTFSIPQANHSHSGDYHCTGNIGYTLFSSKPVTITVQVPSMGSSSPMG
Experimental: as §1

[4] = molecular target: T4, human Fc-gamma receptor I (CD64) (human, UniProt P12314 16-288, limits assumed); assay: SPR (BIAcore), antibody captured on immobilized CD33 ECD, receptor injected; kinetic fit
T4 construct: Soluble receptor injected over captured antibody; also called FcγRI (CD64)
T4 sequence (P12314 16-288 limits assumed): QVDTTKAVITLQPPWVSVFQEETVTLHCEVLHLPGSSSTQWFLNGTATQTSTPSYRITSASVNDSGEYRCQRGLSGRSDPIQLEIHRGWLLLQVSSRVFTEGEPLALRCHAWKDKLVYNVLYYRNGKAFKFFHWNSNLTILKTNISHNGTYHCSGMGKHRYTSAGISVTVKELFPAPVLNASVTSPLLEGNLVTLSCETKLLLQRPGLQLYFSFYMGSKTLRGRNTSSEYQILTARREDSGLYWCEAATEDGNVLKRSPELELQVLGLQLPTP
Experimental: as §1

[5] = molecular target: T5, human FcRn, biotinylated through an engineered Avi-tag (human, UniProt P55899 24-297; P61769 21-119); assay: SPR (BIAcore), steady-state, pH 6.0; biotinylated human FcRn on streptavidin chip, antibody injected
T5 construct: not shown: engineered Avi-tag
T5 sequence (P55899 24-297 limits assumed, change not shown, chain 1 of 2): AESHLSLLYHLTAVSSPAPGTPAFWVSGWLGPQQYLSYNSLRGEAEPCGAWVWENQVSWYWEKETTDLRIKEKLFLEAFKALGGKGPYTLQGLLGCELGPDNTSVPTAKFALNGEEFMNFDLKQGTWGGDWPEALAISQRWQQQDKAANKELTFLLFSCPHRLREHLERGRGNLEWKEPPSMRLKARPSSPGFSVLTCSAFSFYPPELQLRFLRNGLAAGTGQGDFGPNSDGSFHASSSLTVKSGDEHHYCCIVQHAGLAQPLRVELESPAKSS
T5 sequence (P61769 21-119 limits assumed, change not shown, chain 2 of 2): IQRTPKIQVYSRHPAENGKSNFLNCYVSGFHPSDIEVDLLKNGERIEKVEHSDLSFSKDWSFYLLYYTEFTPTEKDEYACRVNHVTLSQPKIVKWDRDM

[6] = molecular target: T1, human Fc-gamma receptor IIb (CD32b); assay: SPR (BIAcore), ADC captured on immobilized CD33 ECD, receptor injected; steady state fit
Experimental: as §1

[7] = molecular target: T2, human Fc-gamma receptor IIIa (CD16a); assay: as above
Experimental: as §1

[8] = molecular target: T3, human Fc-gamma receptor IIa (CD32a); assay: as above
Experimental: as §1

[9] = molecular target: T5, human FcRn, biotinylated through an …; assay: SPR (BIAcore), steady-state, pH 6.0; biotinylated human FcRn on streptavidin chip, ADC injected
Text: BIAcore® technology utilizes changes in the refractive index at the surface layer of a sensor upon binding of the anti-CD33 derived monoclonal antibodies or their respective ADCs to human FcRn protein immobilized on the layer. Binding was detected by surface plasmon resonance (SPR) of laser light refracting from the surface. Human FcRn was specifically biotinylated through an engineered Avi-tag using the BirA reagent (Catalog #: BIRA500, Avidity, LLC, Aurora, Colo.) and immobilized onto a streptavidin (SA) sensor chip to enable uniform orientation of the FcRn protein on the sensor.

[10] = molecular target: T4, human Fc-gamma receptor I (CD64); assay: SPR (BIAcore), ADC captured on immobilized CD33 ECD, receptor injected; kinetic fit
Experimental: as §1

B1: CD33-(K334C/K392C) antibody (unconjugated) (antibody, human IgG1)
heavy: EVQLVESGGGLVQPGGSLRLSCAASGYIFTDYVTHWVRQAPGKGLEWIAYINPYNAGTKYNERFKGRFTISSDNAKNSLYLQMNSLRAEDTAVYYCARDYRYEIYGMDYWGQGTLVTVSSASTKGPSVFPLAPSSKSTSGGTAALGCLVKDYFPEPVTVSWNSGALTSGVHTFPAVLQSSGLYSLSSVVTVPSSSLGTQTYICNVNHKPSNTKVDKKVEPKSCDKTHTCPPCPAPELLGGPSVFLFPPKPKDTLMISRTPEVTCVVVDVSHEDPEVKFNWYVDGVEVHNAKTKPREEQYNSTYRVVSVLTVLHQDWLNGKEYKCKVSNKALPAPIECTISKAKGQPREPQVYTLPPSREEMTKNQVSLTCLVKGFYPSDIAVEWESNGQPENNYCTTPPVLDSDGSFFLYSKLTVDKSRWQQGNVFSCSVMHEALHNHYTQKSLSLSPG
light: DIQLTQSPSSLSASVGDRVTITCRASSSVGYMHWYQQKPGKAPKLLIYDTSQLASGVPSRFSGSGSGTDFTLTISSLQPEDFATYYCQLWSSNPLTFGGGTKVEIKRTVAAPSVFIFPPSDEQLKSGTASVVCLLNNFYPREAKVQWKVDNALQSGNSQESVTEQDSKDSTYSLSSTLTLSKADYEKHKVYACEVTHQGLSSPVTKSFNRGEC
notes: Human IgG1 with engineered Cys at heavy chain positions 334 and 392 (Eu index of Kabat); also called CD33-(K334C/K392C)-human IgG1 antibody
How did the Kd [1] turn out when B1 was run?
The Kd was 3460 nM.

What about the Kd [2] of the same binder?
The Kd was 210 nM.

What about the Kd [3] of the same binder?
Its Kd is 900 nM.

And the Kd [4]?
The Kd was 0.02 nM.

What about the Kd [5] of the same binder?
Its Kd is 964 nM.

B2: CD33-(K334C/K392C)-CPI (CD33-(K334C/K392C)-MalPeg6-vc-PABC-DMAE-CPI ADC) (antibody, human IgG1)
heavy: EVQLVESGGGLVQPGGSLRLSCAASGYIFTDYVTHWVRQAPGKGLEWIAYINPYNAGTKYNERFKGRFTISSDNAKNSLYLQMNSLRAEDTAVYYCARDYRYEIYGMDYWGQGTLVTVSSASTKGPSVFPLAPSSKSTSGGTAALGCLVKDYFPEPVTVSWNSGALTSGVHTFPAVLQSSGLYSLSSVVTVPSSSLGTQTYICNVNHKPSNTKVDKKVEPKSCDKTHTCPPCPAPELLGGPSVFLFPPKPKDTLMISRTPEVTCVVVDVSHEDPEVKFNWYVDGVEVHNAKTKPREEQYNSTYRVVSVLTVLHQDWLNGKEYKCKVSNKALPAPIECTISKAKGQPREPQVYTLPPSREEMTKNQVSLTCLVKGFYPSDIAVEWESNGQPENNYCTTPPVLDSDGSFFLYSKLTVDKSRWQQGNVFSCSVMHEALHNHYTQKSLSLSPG
light: B1 light
modifications: linker-payload MalPeg6-vc-PABC-DMAE-CPI (LP7) on engineered Cys 334 and Cys 392 (Eu index of Kabat); DAR 4.0
notes: Antibody drug conjugate, human IgG1
How did the Kd [6] turn out when B2 was run?
Its Kd is 20100 nM.

What about the Kd [7] of the same binder?
Its Kd is 5650 nM.

What about the Kd [8] of the same binder?
Its Kd is 12900 nM.

What about the Kd [9] of the same binder?
Its Kd is 1220 nM.

What about the Kd [10] of the same binder?
The Kd was 0.17 nM.
